Reference: article PMC13623127 (PLOS One, 2026)

Columns and labels:
Experiment in all cases: SPR; TNFSF member immobilised on ProteOn GLH chip by amine coupling (up to 5,000-14,500 RU); S100 analyte 62.5 nM to 16 uM, 300 s at 30 uL/min; 25°C; 10 mM HEPES-NaOH, 150 mM NaCl, 0.05% TWEEN 20, 1 mM CaCl2, pH 7.4; heterogeneous ligand, one-site or two-state model; constants averaged over analyte concentrations (SD, n = 2-9)
Conditions in all cases: both partners purified
[1] = molecular target: T1, A proliferation-inducing ligand (TNF ligand superfamily member 13), recombinant soluble form (human, UniProt O75888 105-250)
T1 construct: A proliferation-inducing ligand (TNF ligand superfamily member 13), human, recombinant soluble form; also called APRIL
T1 sequence (looked up): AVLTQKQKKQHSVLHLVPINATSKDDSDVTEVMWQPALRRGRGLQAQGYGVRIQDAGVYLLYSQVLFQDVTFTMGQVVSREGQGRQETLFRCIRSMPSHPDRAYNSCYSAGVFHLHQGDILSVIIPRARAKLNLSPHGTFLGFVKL

[2] = molecular target: T2, activation-inducible TNF-related ligand (TNF ligand superfamily member 18), recombinant soluble form (human, UniProt Q9UNG2 49-177)
T2 construct: also called AITRL
T2 sequence (looked up): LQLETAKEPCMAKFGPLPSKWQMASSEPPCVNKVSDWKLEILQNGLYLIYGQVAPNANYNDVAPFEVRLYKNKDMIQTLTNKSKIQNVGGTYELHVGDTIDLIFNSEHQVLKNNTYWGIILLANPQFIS

[3] = molecular target: T3, TNF-related weak inducer of apoptosis (TNF ligand superfamily member 12), recombinant soluble form (human, UniProt O43508 94-249)
T3 construct: TNF-related weak inducer of apoptosis (TNF ligand superfamily member 12), human, recombinant soluble form; also called TWEAK
T3 sequence (looked up): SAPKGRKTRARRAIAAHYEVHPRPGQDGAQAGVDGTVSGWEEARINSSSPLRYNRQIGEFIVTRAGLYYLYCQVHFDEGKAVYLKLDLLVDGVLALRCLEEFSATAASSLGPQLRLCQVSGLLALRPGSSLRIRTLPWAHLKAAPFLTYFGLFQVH

[4] = molecular target: T4, vascular endothelial cell growth inhibitor (TNF ligand superfamily member 15), recombinant soluble form (human, UniProt O95150 72-251)
T4 construct: also called VEGI
T4 sequence (looked up): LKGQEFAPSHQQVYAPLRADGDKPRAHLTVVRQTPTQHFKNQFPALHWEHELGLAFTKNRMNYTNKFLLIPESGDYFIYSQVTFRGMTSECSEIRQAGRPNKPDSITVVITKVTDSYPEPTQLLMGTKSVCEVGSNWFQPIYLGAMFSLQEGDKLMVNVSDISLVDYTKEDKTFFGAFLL

Kd [1] | koff [1] | Kd [2] | koff [2] | Kd [3] | koff [3] | Kd [4] | koff [4] | Binder
11 nM | 4.85e-06 s⁻¹ | 409 nM | 0.000275 s⁻¹ | 75.7 nM | 3.29e-05 s⁻¹ |  |  | recombinant tag-free human S100A5 (natural protein, UniProt P33763 1-92, looked up, S100A5, human, recombinant, tag-free; Tag-free) METPLEKALTTMVTTFHKYSGREGSKLTLSRKELKELIKKELCLGEMKESSIDDLMKSLDKNSDQEIDFKEYSVFLTMLCMAYNDFFLEDNK
684 nM | 0.00122 s⁻¹ |  |  |  |  |  |  | recombinant tag-free human S100A2 (natural protein, S100A2, human, recombinant, tag-free; Tag-free) not shown
 |  |  |  |  |  | 11100 nM | 0.0123 s⁻¹ | recombinant tag-free human S100P (natural protein, UniProt P25815 1-95, looked up, S100P, human, recombinant, tag-free; Tag-free) MTELETAMGMIIDVFSRYSGSEGSTQTLTKGELKVLMEKELPGFLQSGKDKDAVDKLLKDLDANGDAQVDFSEFIVFVAAITSACHKYFEKAGLK
 |  | 12000 nM | 0.00626 s⁻¹ |  |  |  |  | recombinant tag-free human S100B (natural protein, UniProt P04271 1-92, looked up, S100B, human, recombinant, tag-free; Tag-free) MSELEKAMVALIDVFHQYSGREGDKHKLKKSELKELINNELSHFLEEIKEQEVVDKVMETLDNDGDGECDFQEFMAFVAMVTTACHEFFEHE
